# Measurements: paper PMC4546571 (Chemistry & biology, 2015)
# Target: the molecule itself
# Experiment: seeded fibril assembly followed by ThT fluorescence
protein,measurement,value
"GIHKQKEKSRLQGGVLVNEILNHMKRATQIPSYKKLIMY (peptide, UniProt P15309 248-286, looked up) [PAP248-286]",binding result,binds
